Measurements taken from US20240084042A1 (Genentech, published 2024).

T1: cynomolgus monkey KLK5 (cynomolgus monkey, UniProt Q9Y337 67-293 (human entry))
T1 construct: also called cyno KLK5
T1 chain: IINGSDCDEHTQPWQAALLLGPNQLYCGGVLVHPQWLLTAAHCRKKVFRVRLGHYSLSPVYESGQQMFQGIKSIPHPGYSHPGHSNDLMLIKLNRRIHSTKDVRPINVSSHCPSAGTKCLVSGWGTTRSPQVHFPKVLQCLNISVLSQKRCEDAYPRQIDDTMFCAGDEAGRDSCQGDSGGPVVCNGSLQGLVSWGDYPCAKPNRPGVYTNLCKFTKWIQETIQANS

T2: human KLK5 (human, UniProt Q9Y337 67-293)
T2 construct: also called huKLK5; KLK5 AMC
T2 sequence: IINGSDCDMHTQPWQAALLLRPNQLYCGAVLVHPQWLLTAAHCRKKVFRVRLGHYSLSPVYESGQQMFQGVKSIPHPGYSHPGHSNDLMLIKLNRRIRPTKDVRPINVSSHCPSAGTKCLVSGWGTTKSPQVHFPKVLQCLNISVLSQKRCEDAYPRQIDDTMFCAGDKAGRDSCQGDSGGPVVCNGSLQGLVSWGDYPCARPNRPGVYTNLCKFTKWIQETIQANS


What was measured:
[1] = target: T1, cynomolgus monkey KLK5; experiment: SPR, one-armed monovalent antibody
[2] = target: T2, human KLK5; experiment: SPR, one-armed monovalent antibody

Row | Binder | Kd [1] [nM] | koff [1] [s⁻¹] | kon [1] [M⁻¹ s⁻¹] | Kd [2] [nM] | koff [2] [s⁻¹] | kon [2] [M⁻¹ s⁻¹]
1 | OA.hu.9H5.H14L4.G54A.G98Q.H89V.S95Y (antibody, V domains shown, One-armed (OA) monovalent anti-KLK5 antibody with a human IgG1 Fc, with Q38E/Q39K; constant regions and dummy Fc chain not specified) VH: EVQLVESGGGLIQPGGSLRLSCAASGFSLSSYGVSWVRKAPGKGLEYVGFIGSAGFAYYASWAKSRFTISRDNSKNTLYLQMNSLRAEDTAVYYCARDDVQGGKSLDIWGQGTLVTVSS VL: DIQMTQSPSSLSASVGDRVTITCQASQSISSYLSWYQEKPGKAPKLLIYSASTLASGVPSRFSGSGSGTDFTLTISSLQPEDFATYYCVQDYTSYNVDNTFGGGTKVEIK | 0.0146 | 5.75e-05 | 3.95e+06 | 0.0121 | 2.39e-05 | 1.98e+06
2 | OA.hu.9H5.H14L4 (antibody, V domains shown, One-armed (OA) monovalent anti-KLK5 antibody with a human IgG1 Fc, with Q38E/Q39K; constant regions and dummy Fc chain not specified) VH: EVQLVESGGGLIQPGGSLRLSCAASGFSLSSYGVSWVRKAPGKGLEYVGFIGSGGFAYYASWAKSRFTISRDNSKNTLYLQMNSLRAEDTAVYYCARDDVGGGKSLDIWGQGTLVTVSS VL: DIQMTQSPSSLSASVGDRVTITCQASQSISSYLSWYQEKPGKAPKLLIYSASTLASGVPSRFSGSGSGTDFTLTISSLQPEDFATYYCHQDYTSSNVDNTFGGGTKVEIK | 0.0623 | 0.000697 | 1.12e+07 | 0.254 | 0.000272 | 1.07e+06
3 | OA.hu.9H5.H14L4.G54A.H89V.S95Y (antibody, V domains shown, One-armed (OA) monovalent anti-KLK5 antibody with a human IgG1 Fc, with Q38E/Q39K; constant regions and dummy Fc chain not specified) VH: EVQLVESGGGLIQPGGSLRLSCAASGFSLSSYGVSWVRKAPGKGLEYVGFIGSAGFAYYASWAKSRFTISRDNSKNTLYLQMNSLRAEDTAVYYCARDDVGGGKSLDIWGQGTLVTVSS VL: DIQMTQSPSSLSASVGDRVTITCQASQSISSYLSWYQEKPGKAPKLLIYSASTLASGVPSRFSGSGSGTDFTLTISSLQPEDFATYYCVQDYTSYNVDNTFGGGTKVEIK | 0.0172 | 7.36e-05 | 4.28e+06 | 0.0196 | 1.37e-05 | 699000
4 | OA.hu.9H5.H14L4.G54A.S95Y (antibody, V domains shown, One-armed (OA) monovalent anti-KLK5 antibody with a human IgG1 Fc, with Q38E/Q39K; constant regions and dummy Fc chain not specified) VH: EVQLVESGGGLIQPGGSLRLSCAASGFSLSSYGVSWVRKAPGKGLEYVGFIGSAGFAYYASWAKSRFTISRDNSKNTLYLQMNSLRAEDTAVYYCARDDVGGGKSLDIWGQGTLVTVSS VL: DIQMTQSPSSLSASVGDRVTITCQASQSISSYLSWYQEKPGKAPKLLIYSASTLASGVPSRFSGSGSGTDFTLTISSLQPEDFATYYCHQDYTSYNVDNTFGGGTKVEIK | 0.0175 | 8.44e-05 | 4.82e+06 | 0.0162 | 1.6e-05 | 992000

Further binders by falling Kd [1], results first:

Row | Kd [1] [nM] | koff [1] [s⁻¹] | kon [1] [M⁻¹ s⁻¹] | Kd [2] [nM] | koff [2] [s⁻¹] | kon [2] [M⁻¹ s⁻¹] | Binder
5 | 0.0154 | 9.18e-05 | 5.97e+06 | 0.00994 | 2.71e-05 | 2.73e+06 | OA.hu.9H5.H14L4.G54A.G98Q.S95Y (antibody, V domains shown, One-armed (OA) monovalent anti-KLK5 antibody with a human IgG1 Fc, with Q38E/Q39K; constant regions and dummy Fc chain not specified) VH: EVQLVESGGGLIQPGGSLRLSCAASGFSLSSYGVSWVRKAPGKGLEYVGFIGSAGFAYYASWAKSRFTISRDNSKNTLYLQMNSLRAEDTAVYYCARDDVQGGKSLDIWGQGTLVTVSS VL: DIQMTQSPSSLSASVGDRVTITCQASQSISSYLSWYQEKPGKAPKLLIYSASTLASGVPSRFSGSGSGTDFTLTISSLQPEDFATYYCHQDYTSYNVDNTFGGGTKVEIK
6 | 0.00893 | 0.00011 | 1.24e+07 | 0.0102 | 3.85e-05 | 3.79e+06 | OA.hu.9H5.H14L4.G54A.H89V (antibody, V domains shown, One-armed (OA) monovalent anti-KLK5 antibody with a human IgG1 Fc, with Q38E/Q39K; constant regions and dummy Fc chain not specified) VH: EVQLVESGGGLIQPGGSLRLSCAASGFSLSSYGVSWVRKAPGKGLEYVGFIGSAGFAYYASWAKSRFTISRDNSKNTLYLQMNSLRAEDTAVYYCARDDVGGGKSLDIWGQGTLVTVSS VL: DIQMTQSPSSLSASVGDRVTITCQASQSISSYLSWYQEKPGKAPKLLIYSASTLASGVPSRFSGSGSGTDFTLTISSLQPEDFATYYCVQDYTSSNVDNTFGGGTKVEIK
7 | 0.00298 | 6.52e-05 | 2.19e+07 | 0.000348 | 2.97e-06 | 8.54e+06 | OA.hu.9H5.H14L4.G54A.G98Q.H89V (antibody, V domains shown, One-armed (OA) monovalent anti-KLK5 antibody with a human IgG1 Fc, with Q38E/Q39K; constant regions and dummy Fc chain not specified) VH: EVQLVESGGGLIQPGGSLRLSCAASGFSLSSYGVSWVRKAPGKGLEYVGFIGSAGFAYYASWAKSRFTISRDNSKNTLYLQMNSLRAEDTAVYYCARDDVQGGKSLDIWGQGTLVTVSS VL: DIQMTQSPSSLSASVGDRVTITCQASQSISSYLSWYQEKPGKAPKLLIYSASTLASGVPSRFSGSGSGTDFTLTISSLQPEDFATYYCVQDYTSSNVDNTFGGGTKVEIK
